Measurements as given in publication PMC10540840, “PET imaging with [^68Ga]-labeled TGFβ-targeting peptide in a mouse PANC-1 tumor model” (Frontiers in Oncology, 2023).
Peptide text beside a SMILES is read from it. * marks the point of attachment. DOTA = O=C(O)CN1CCN(CC(=O)O)CCN(CC(=O)*)CCN(CC(=O)O)CC1; PEG3 = NCCOCCOCCOCCC(=O)O

Assays:
[1] = Radio-HPLC radiochemical purity after standing at room temperature (stability); type: physicochemical; details: C18, room temperature, 4 h after synthesis
Protocol: Radio-HPLC and radio-iTLC assays were conducted for the quality control of product [^68Ga]Ga-DOTA-P144 and free [^68Ga] ions. American alltech1500 high-performance liquid chromatography and online radioactive detector were used. Chromatographic column: YMC-Pack Pro C18 RS (5 μm, 250 mm × 4.6 mm). Mobile phase: A) water + 0.1% formic acid; B) acetonitrile. Method: 0 min, 95% A and 5% B; 1 min, 95% A and 5% B; 10 min, 70% A and 30% B; 18 min, 70% A and 30% B; 25 min, 95% A and 5% B; flow speed, 1 mL/min. The quality control standard was that the chemical and radiochemical purities of the products were greater than 95%. Radio-iTLC analytical quantification methods/conditions were as follows. The stationary phase was iTLC glass fiber (1 cm × 8 cm instant silica gel strip), and the developing solvent was 2 mM of sodium citrate/citric acid buffer solution (pH 6.5). performed according to General Rule 1401 in Chinese Pharmacopoeia (2020 Edition), the method for the determination of radioactive drugs, the Rf value of the radioactive peak of the product to be tested was approximately 0.1–0.4, and there was a single main peak under normal conditions. If there were impurities, especially free [^68Ga] ions, the corresponding peaks should appear at the Rf value of approximately 0.6–0.8. […]

[2] = tested on: PANC-1 cells; experiment: Cell uptake (internalization) assay in PANC-1 cells; type: cell-based, human; details: 200 MBq/L, 0.5-5 h incubation, FCS-free medium, γ-counter, %AD per 1 × 10^6 cells, three series
Protocol: (§1) The method process for cell uptake assay of radiolabeled drug was as follows. First, the selected cell lines were inoculated into a 6-well plate, incubated for 48 h to achieve a cell coverage rate of approximately 80%–90% (1.2–2 × 10^6 cells/well), and replaced with 1 mL of fresh culture medium without fetal calf serum (FCS). Then, a certain amount of radionuclide-labeled drug (200 MBq/L) was added to the culture well and incubated for different times (0.5–5 h). The culture medium containing the drug was removed, and the cells were washed twice with 1 mL of phosphate-buffered saline (PBS) (pH 7.4). Cells were incubated with 1 mL of glycine HCl solution (1 M, pH 2.2) at room temperature for 10 min to remove surface binding, and the cells were washed with 2 mL of ice-cold PBS (collect washing solution for detection of binding amount). After that, 1.4 mL of lysis buffer (0.3 M of NaOH, 0.2% sodium dodecyl sulfate (SDS)) was used to lyse the cells and collect this lysate. With a γ-counter, the radioactive activity in the collected lysate was measured, and the %AD value was calculated. One mio (1 × 10^6) of cells was adopted for normalization, with the result representing the internalization uptake level of the tested radiopharmaceutical by this cell line. Each experiment was repeated three times independently, with three multiple wells set at each processing time point.

[3] = tested on: PC3 cells; experiment: Cell uptake (internalization) assay in PC3 cells; type: cell-based; details: 200 MBq/L, 0.5-5 h incubation, FCS-free medium, γ-counter, three series
Protocol: as §1

[4] = in vivo; details: nude, mouse, iv, 1 mg/kg, total radioactivity
Protocol: (§2) Pancreatic cancer cell line PANC-1 was obtained from the ATCC, and cells were cultured in complete RPMI1640 medium supplemented with 10% fetal calf serum (Life Technologies, Carlsbad, CA, USA). One portion of the PANC-1 cells (~1 × 10^6) was injected subcutaneously below the anterior axillary of the nude mice to induce the mouse heterotopic tumor model. The tumor cells were suspended in a mixture (v/v, 1:1) of medium and Matrigel (Corning Life Sciences, Corning, NY, USA). The tumor xenografts were generally palpable within 10 days after injection. Xenograft tumor sizes of the model mice were measured every 3 days. Short and long tumor diameters, tumor volume, and body weight were measured. When the xenograft tumor grew to a volume of 150–200 mm^3, the mice were used for PET imaging study. A diagnostic tracer and drug were injected approximately 2 weeks after the establishment of the tumor model.
(§3) Peptide conjugate P144-DOTA and the radiolabeled tracer [^68Ga]Ga-P144 were both administrated through tail vein injection. The chemical dose of [^68Ga]Ga-P144 was 1 mg/kg, and the radioactive dose was approximately 3.7 MBq in 200 μL per mouse. As a competitive blocker with the same target TGFβ, the dose of DOTA-P144 was 100 mg/kg (47.3 μmol/kg, 100 times the mass dose of the radiolabeled peptide conjugate), and the administration of this unlabeled peptide conjugate was followed after 10 min by 1 mg/kg of the radiolabeled tracer [^68Ga]Ga-P144. All the mice were deprived of food and water for 1 h before drug administration. Then, the mice were anesthetized with pentobarbital sodium (45 mg/kg) and scanned with microPET. After the last scanning, the mice were anesthetized with 2% pentobarbital sodium at 65 mg/kg intraperitoneally and then executed by dislocation of their cervical vertebra, and the tissues were harvested for analysis.
(§4) The tumor-bearing mice were anesthetized with pentobarbital sodium before microPET scanning. Each mouse was intravenously injected with approximately 3.7 MBq (90–120 μCi) of [^68Ga]Ga-P144. After administration, the mice were scanned by a small animal PET system (Inveon, Siemens, Munich, Germany). The body temperature of the mice was monitored by a rectal probe and kept at 37°C by a heated air stream. The scanning time was set as follows: static PET scanning for 10 min and scanning energy window 350–650 keV at four time points (1 h, 2 h, 3 h, and 4 h) after the injection. MicroPET image reconstruction was performed using a 3D OSEM PSF algorithm with five iterations. Images were processed and analyzed using PMOD4.2 software (PMOD Technologies Ltd., Zurich, Switzerland). Regions of interest (ROIs) of the brain, heart, liver, lungs, kidney, muscle, and tumor were delineated. Radioactivity values of the ROIs per unit volume were obtained, and the percentage of injected dose per tissue weight in gram (%ID/g) values of the different organs and tissues were calculated as follows:
(§5) %ID/g=radiouptake in ROI(kBq/g)/injection dose(kBq)×100.

[5] = tested on: PANC-1 tumor-bearing mice; experiment: in vivo; details: mouse
Protocol: as §2, §3, §4, §5

[6] = in vivo; details: nude, mouse, iv, 1 mg/kg, total radioactivity; remark: listed apart in the source
Protocol: For biodistribution assay ex vivo, the PANC-1 tumor model mice were euthanized by pentobarbital sodium at 1 h after tracer administration. The blood was harvested via cardiac puncture, and the different organs/tissues were isolated, weighed, and counted on a γ-counter for radioactivity. The amount of the injected radiotracer was measured and used to determine the total number of counts of nuclei decay per minute (CPM) by comparison with a standard of known activity. The data were background- and decay-corrected and expressed as percentages of the injection dose per tissue weight in grams (%ID/g).

[7] = in vivo; details: nude, mouse, iv, 1 mg/kg, total radioactivity; remark: listed apart in the source
Protocol: as §3, with “After the last scanning, the mice were anesthetized with 2% pentobarbital sodium at 65 mg/kg intraperitoneally and then executed by dislocation of their cervical vertebra, and the tissues were harvested for analysis.” left out
The tumor-bearing mice were anesthetized with pentobarbital sodium before microPET scanning. […] The body temperature of the mice was monitored by a rectal probe and kept at 37°C by a heated air stream. […] Images were processed and analyzed using PMOD4.2 software (PMOD Technologies Ltd., Zurich, Switzerland). […] Radioactivity values of the ROIs per unit volume were obtained, and the percentage of injected dose per tissue weight in gram (%ID/g) values of the different organs and tissues were calculated as follows: […]

[8] = tested on: human glioblastoma cells; details: ref [28]; cited from earlier work
Description: TGFβ-specific blocking peptide P144 selected in this study was an analog of the essential structure for ligand recognition and binding in the extracellular domain of TGFβR3, which has high specificity and affinity to TGFβ ([36]). […] The doses of th ...

Compound: CC[C@H](C)[C@H](NC(=O)[C@H](CO)NC(=O)[C@H](C)NC(=O)[C@H](CC(=O)O)NC(=O)[C@H](CC(C)C)NC(=O)[C@H](CO)NC(=O)[C@@H](NC(=O)CCOCCOCCOCCNC(=O)CN1CCN(CC(=O)O)CCN(CC(=O)O)CCN(CC(=O)O)CC1)[C@@H](C)O)C(=O)N[C@@H](Cc1c[nH]c2ccccc12)C(=O)N[C@@H](C)C(=O)N[C@@H](CCSC)C(=O)N[C@@H](CCSC)C(=O)N[C@@H](CCC(N)=O)C(=O)N[C@@H](CC(N)=O)C(=O)N[C@@H](C)C(N)=O [[^68Ga]Ga-P144, metal not drawn] ({DOTA-PEG3}-TSLDASIWAMMQNA-NH2; N-terminus and C-terminus assumed)
- radiochemical purity after purification and placement at room temperature for 4 h [1]: 98.87%
- cell uptake ratio (internalization) [2]: high and persistent
- cell uptake ratio (non-specific cellular uptake) [3]: very low level
- tissue to tissue ratio at 1 h [4]: 3.44 ± 1.53
- tissue to tissue ratio at 4 h [4]: 3.77 ± 1.18
- tissue uptake at 1 h ([4]; uptake in heart): 5.74 ± 1.68 %ID/g
- tissue uptake at 4 h ([4]; uptake in heart): 3.92 ± 0.891 %ID/g
- tissue uptake at 1 h ([4]; uptake in kidneys): 3.32 ± 0.636 %ID/g
- tissue uptake at 4 h ([4]; uptake in kidneys): 2.8 ± 0.281 %ID/g
- tissue uptake at 1 h ([4]; uptake in liver): 4.01 ± 0.975 %ID/g
- tissue uptake at 4 h ([4]; uptake in liver): 2.91 ± 0.431 %ID/g
- tissue uptake at 1 h ([4]; uptake in lung): 3.56 ± 0.739 %ID/g
- tissue uptake at 4 h ([4]; uptake in lung): 2.19 ± 0.206 %ID/g
- tissue uptake at 1 h ([4]; uptake in tumors): 5.76 ± 1.21 %ID/g
- tissue uptake at 4 h ([4]; uptake in tumors): 6.02 ± 1.37 %ID/g
- tumor retention time [5]: > 4 h
- tissue uptake at 1 h ([6]; ex vivo radioactive biodistribution in heart): 4.89 ± 0.899 %ID/g
- tissue uptake at 1 h ([6]; ex vivo radioactive biodistribution in kidney): 2.98 ± 0.854 %ID/g
- tissue uptake at 1 h ([6]; ex vivo radioactive biodistribution in liver): 1.95 ± 0.717 %ID/g
- tissue uptake at 1 h ([6]; ex vivo radioactive biodistribution in lung): 3.16 ± 0.429 %ID/g
- tissue uptake at 1 h ([6]; ex vivo radioactive biodistribution in tumors): 4.63 ± 1.22 %ID/g
- tissue uptake at 1 h [7]: 5.36 ± 0.937 %ID/g

Compound: TSLDASIWAMMQNA [P144]
- growth and proliferation of human glioblastoma cells [8]: significantly inhibit
